Experimental data from patent publication US20100233154A1, “TARGETED BINDING AGENTS DIRECTED TO HEPARANASE AND USES THEREOF 463” (MedImmune Limited, priority 2008, published 2010).

Assays:
murine heparanase = molecular target: T1, murine heparanase (Mus musculus, UniProt Q6YGZ1); experiment: Cross species capture ELISA, murine heparanase; format: binding; conditions: min 0.06, max 0.9 OD units
T1 construct: made in house; host or cells: Hek293 cells (conditioned medium), inferred for the ELISA
T1 sequence (Q6YGZ1 28-535): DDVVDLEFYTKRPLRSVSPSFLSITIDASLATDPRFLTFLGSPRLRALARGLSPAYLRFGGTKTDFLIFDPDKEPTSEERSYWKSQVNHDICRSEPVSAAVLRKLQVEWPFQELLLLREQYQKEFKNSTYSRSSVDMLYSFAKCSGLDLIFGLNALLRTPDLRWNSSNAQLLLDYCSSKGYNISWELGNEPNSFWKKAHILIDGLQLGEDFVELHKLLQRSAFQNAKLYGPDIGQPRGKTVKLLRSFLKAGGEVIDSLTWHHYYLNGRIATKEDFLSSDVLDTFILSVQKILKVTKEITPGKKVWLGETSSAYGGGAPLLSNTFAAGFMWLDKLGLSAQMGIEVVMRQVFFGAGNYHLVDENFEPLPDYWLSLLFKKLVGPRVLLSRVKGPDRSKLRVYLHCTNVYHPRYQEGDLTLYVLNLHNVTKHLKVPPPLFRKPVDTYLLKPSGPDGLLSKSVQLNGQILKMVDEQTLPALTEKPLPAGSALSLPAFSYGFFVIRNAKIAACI
Method: (§1) Initially, cross species binding to human, murine and cynomolgus heparanase was determined in an ELISA assay in which heparanase was captured onto plates using a rabbit anti-heparanase antibody (Raybiotech, Cat. IP-14-155). Exhaustive supernatants were added to the plates at a final dilution of 1:5 and bound antibody detected with a rabbit anti-human IgG Fc.

HCT116 xenograft = experiment: Subcutaneous xenograft tumour growth, HCT116; format: in vivo, SCID mice; conditions: once weekly i.p.; 10E9.1 at 15 mg per kg
Method: (§2) MCF7-Hpa1#19 and HCT116 tumour cells were harvested from sub-confluent cultures. A total of 5×10^6 (MCF7-Hpa1#19) or 10^7 (HCT116) tumour cells were inoculated subcutaneously into the flank of male SCID mice. HCT116 tumour cells were implanted in PBS; […] cells were implanted in PBS containing 50% matrigel.
(§3) When tumours had attained ˜200 mm^3, tumour bearing mice were randomised into treatment groups and dosed with the following; PBS; an isotype matched control IgG2 antibody, 15 mg per kg; anti-heparanase antibody 10E9.1, 7.5 or 15 mg per kg. All treatments were administered once weekly i.p. Tumour growth was measured twice per week using calipers and tumour volumes calculated according to an ellipsoid volume is formula (3.142/6×length×width×width) from measures of the largest tumour diameter and two opposing widths (FIG. 11).

[1] = molecular target: T2, recombinant heparanase captured with rabbit anti-heparanase antibody (Homo sapiens, UniProt Q9Y251); experiment: ELISA binding to antibody-captured heparanase; conditions: antibody capture
T2 construct: Heparanase 8 and 50 kDa sub-units were cloned into pacGP67 as Sma 1-EcoR1 fragments; made in house; host or cells: Hi5 insect cells, baculovirus (pFastBac Dual)
T2 sequence (Q9Y251 158-543 limits assumed): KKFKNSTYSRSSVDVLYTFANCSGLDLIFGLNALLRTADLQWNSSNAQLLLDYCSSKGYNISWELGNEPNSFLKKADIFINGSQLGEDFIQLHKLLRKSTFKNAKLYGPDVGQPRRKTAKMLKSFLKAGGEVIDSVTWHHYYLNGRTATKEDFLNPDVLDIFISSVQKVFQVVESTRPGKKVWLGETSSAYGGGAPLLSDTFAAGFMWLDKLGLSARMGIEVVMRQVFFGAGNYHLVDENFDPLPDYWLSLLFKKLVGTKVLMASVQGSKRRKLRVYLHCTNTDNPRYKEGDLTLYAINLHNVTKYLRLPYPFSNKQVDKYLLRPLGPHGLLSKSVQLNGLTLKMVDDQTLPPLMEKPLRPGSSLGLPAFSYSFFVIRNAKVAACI
T2 sequence (Q9Y251 36-109 limits assumed): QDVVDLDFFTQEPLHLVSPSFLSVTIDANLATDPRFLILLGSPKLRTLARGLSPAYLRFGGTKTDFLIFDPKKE
Method: (§4) Titres of antibodies from Campaigns 1 and 2 were determined in an ELISA. Costar 3368 medium binding plates were coated directly with recombinant human heparanase or plates were coated with Rabbit anti-heparanase antibody (Raybiotech, Cat. IP-14-155) to capture recombinant heparanase. Directly coated heparanase was detected in three separate plates by mouse (InSight Cat. INS-26-1-0000), goat (Santa Cruz, Cat. sc26136) or rabbit (Raybiotech, Cat. IP-14-155) anti-heparanase antibodies, and quantified using appropriate secondary antibodies. Antibody captured heparanase was detected using mouse anti-heparanase (Insight Cat. INS-26-1-0000). At the end of the immunisation program, fusions were performed using mouse myeloma cells and lymphocytes isolated from the spleens and lymph nodes of the immunised mice by means of electroporation, as described in Example 2.
(§5) Initial screening to detect antibodies binding to human heparanase in both direct coating and antibody capture ELISAs as described above identified 800 hybridomas for further testing; 535 IgG2 from Campaign 1 and 2 and 265 IgG4 from Campaign 2. Enzyme inhibition assays and cross species binding to cynomolgus and murine heparanase, in an antibody capture ELISA, identifed 12 antibodies that were taken forward for sub-cloning to provide purified antibodies for further analysis. Subsequently, confirmation of activity against human heparanase (FIGS. 3 and 4) and inhibition of recombinant cynomolgus and murine heparanase activity in the HS-cryptate degradation assay (FIG. 5a-c), together with sequence analysis, identified 8 antibodies that are described in the table below.

MDA MB231-Hpa1#4 cells = experiment: Heparanase expression in cells cultured with antibody (Western blot); format: cell-based, human; conditions: 25 μg per ml antibody, 72 hrs, compared to untreated or IgG2 control
Method: MDA MB231-Hpa1#4 cells were cultured in the presence of 25 μg per ml anti-human heparanase antibody or control IgG2 antibody (Sigma Cat. No. 1504-1MG) for 72 hrs. Following the removal of culture medium, protein extracts were prepared from the cells in 100 μl RIPA buffer and separated on […] gels and transferred to nitrocellulose as described above. Western blots were probed with an anti-heparanase antibody that detected only pro-heparanase (SantaCruz Cat. No. SC25825).

MCF7-Hpa1#19 xenograft = experiment: Subcutaneous xenograft tumour growth, MCF7-Hpa1#19; format: in vivo, SCID mice; conditions: once weekly i.p.; 10E9.1 at 7.5 or 15 mg per kg
Method: as §2, §3

human heparanase = molecular target: T3, human heparanase (Homo sapiens, UniProt Q9Y251); experiment: Cross species capture ELISA, human heparanase; format: binding
T3 sequence (Q9Y251 36-543): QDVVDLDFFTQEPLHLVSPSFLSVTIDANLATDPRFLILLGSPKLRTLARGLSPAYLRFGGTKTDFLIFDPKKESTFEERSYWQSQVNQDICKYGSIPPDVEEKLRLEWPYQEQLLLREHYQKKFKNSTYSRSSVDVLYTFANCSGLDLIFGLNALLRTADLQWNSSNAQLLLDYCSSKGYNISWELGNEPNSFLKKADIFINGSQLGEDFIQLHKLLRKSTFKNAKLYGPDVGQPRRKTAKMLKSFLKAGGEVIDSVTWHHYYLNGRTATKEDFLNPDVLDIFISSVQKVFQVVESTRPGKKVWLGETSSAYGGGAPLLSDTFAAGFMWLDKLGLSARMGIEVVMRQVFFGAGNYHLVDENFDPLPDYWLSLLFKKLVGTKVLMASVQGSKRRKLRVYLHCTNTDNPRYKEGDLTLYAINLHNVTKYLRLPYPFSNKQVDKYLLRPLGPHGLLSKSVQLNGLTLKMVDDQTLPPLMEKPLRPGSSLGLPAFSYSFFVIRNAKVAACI
Method: as §1

Recombinant Hpa1 = molecular target: T4, Recombinant Hpa1 (Homo sapiens, UniProt Q9Y251); experiment: Medium resolution Biacore affinity; format: binding; conditions: purified antibody captured on CM4 chip; Hpa1 1 nM and 10 nM; 25° C.
T4 construct: Heparanase 8 and 50 kDa sub-units were cloned into pacGP67 as Sma 1-EcoR1 fragments; made in house; host or cells: Hi5 insect cells, baculovirus (pFastBac Dual)
T4 sequence (Q9Y251 158-543 limits assumed): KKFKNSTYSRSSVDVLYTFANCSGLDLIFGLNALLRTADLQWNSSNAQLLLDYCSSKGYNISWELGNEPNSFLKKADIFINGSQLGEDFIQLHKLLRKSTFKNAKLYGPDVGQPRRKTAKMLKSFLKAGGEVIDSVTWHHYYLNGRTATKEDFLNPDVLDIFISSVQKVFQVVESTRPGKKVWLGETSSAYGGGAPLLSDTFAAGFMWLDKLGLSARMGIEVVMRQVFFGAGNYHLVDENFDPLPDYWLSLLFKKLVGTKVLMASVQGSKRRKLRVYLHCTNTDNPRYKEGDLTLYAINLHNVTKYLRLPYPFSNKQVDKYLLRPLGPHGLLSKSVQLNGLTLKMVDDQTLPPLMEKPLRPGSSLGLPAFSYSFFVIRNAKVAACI
T4 sequence (Q9Y251 36-109 limits assumed): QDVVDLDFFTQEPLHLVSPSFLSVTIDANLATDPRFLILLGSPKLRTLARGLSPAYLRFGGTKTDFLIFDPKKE
Method: For medium resolution Biacore™ tests, cloned and purified antibodies were used. Each of three purified antibodies (10E9.1, 15A1.2, and 15A11.1) were captured onto a high-density goat anti-human antibody surface over a CM4 Biacore™ chip. Recombinant Hpa1 was diluted to the desired concentration (1 nM and 10 nM) in 10 mM HEPES, 150 mM NaCl, 0.005% tween-20, 0.1 mg per ml BSA pH7.4 (25° C.) immediately prior to injection. Data were fit globally to a 1:1 interaction model with a term for mass transport included. The resulting KD values are summarised below in Table 4.

[2] = molecular target: T5, recombinant human heparanase (Homo sapiens, UniProt Q9Y251); experiment: ELISA binding to directly coated recombinant human heparanase
T5 construct: Heparanase 8 and 50 kDa sub-units were cloned into pacGP67 as Sma 1-EcoR1 fragments; made in house; host or cells: Hi5 insect cells, baculovirus (pFastBac Dual)
T5 sequence (Q9Y251 158-543 limits assumed): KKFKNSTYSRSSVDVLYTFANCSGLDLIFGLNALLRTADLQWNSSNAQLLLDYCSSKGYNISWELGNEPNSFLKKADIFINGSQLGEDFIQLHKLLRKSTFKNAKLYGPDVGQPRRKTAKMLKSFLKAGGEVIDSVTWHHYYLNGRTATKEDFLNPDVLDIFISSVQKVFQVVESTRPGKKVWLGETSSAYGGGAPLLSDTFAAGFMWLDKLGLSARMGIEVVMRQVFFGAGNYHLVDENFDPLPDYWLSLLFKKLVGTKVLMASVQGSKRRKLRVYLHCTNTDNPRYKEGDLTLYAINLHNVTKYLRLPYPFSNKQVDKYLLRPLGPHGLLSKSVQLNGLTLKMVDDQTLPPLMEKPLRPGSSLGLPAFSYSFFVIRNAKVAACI
T5 sequence (Q9Y251 36-109 limits assumed): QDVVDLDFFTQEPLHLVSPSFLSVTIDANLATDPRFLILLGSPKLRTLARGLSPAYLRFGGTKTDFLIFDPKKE
Method: as §4, §5

cynomolgus heparanase = experiment: Cross species capture ELISA, cynomolgus heparanase; format: binding; conditions: min 0.06, max 1.5 OD units
Method: as §1

B1: 15A11.1: fully human anti-heparanase monoclonal antibody, G2κ; VH SEQ ID NO 10, VL SEQ ID NO 12; ATCC PTA-9490 (antibody, listed as Homo Sapiens, V domains shown)
VH: QVQLVQSGAEVKKPGASVKVSCKVSGDTLTELSMHWVRQTPGKGLEWMGGFDPEDGETIYAQKFQGRVTMTGDTSTDTAYMELSSLRSEDTAVYYCATEGDYGDSEEYYYYYGMDVWGQGTTVTVSS
VL: DIQMTQSPSSLSASVGDRVTITCRASQGISNYLAWYQQKPGKVPKLLIYAASTLQSGVPSRFSGSGSGTDFTLTISSLQPEDVATYYCQKYNRAPFTFGPGTKVDIK
notes: fully human anti-heparanase monoclonal antibody, G2κ; ATCC PTA-9490
- Binding to heparanase Mouse (murine heparanase): 0.17 OD units
- Tumour growth inhibition (HCT116 xenograft): not inhibited
- Binding to captured heparanase [1]: 0.5 OD units
- Inhibition of heparanase expression (MDA MB231-Hpa1#4 cells): significant inhibition of heparanase expression
- Tumour growth inhibition (MCF7-Hpa1#19 xenograft): not inhibited
- Binding to heparanase Human (human heparanase): 0.21 OD units
- ka (Recombinant Hpa1): 3.6e+06 M⁻¹ s⁻¹
- kd (Recombinant Hpa1): 0.000309 s⁻¹
- Binding to direct coated heparanase [2]: 0.07 OD units
- Binding to heparanase Cyno (cynomolgus heparanase): 0.14 OD units
